Test results published in article PMC13078783.

Molecular target: GFP-MAP7 (UniProt O88735)
Experiment: co-IP; HeLa cells transfected with GFP/GFP-MAP7, HA-KLC2 and HA-KIF5C (WT, ElbowLock, DeltaElbow); GFP-TRAP beads; western blot with anti-GFP and anti-HA

Sequence of GFP-MAP7 (O88735 whole entry): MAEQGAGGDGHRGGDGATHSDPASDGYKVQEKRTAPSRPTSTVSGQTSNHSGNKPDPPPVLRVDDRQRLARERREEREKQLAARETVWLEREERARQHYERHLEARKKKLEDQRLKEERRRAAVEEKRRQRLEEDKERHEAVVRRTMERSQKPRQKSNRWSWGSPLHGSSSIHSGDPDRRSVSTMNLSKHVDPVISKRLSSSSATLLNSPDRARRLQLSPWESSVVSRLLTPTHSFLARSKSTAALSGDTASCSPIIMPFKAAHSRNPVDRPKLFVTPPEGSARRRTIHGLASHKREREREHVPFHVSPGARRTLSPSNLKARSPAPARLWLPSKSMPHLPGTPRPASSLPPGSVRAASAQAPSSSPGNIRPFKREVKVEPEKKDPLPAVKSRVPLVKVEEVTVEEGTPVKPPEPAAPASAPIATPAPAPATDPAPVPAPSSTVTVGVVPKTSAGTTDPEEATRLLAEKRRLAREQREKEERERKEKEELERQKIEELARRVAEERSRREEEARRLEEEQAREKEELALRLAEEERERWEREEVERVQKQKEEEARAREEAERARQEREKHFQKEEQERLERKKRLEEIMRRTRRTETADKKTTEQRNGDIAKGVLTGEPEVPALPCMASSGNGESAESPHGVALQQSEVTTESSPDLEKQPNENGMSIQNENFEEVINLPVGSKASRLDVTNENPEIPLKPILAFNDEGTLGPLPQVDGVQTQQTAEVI

fold increase of kinesin-1 co-precipitated with GFP-MAP7 against wild-type or ElbowLock: 5 fold
Substance: DeltaElbow kinesin-1 complex (HA-KIF5C DeltaElbow / HA-KLC2) (from UniProt P56536 1-955; O88448 1-599)
